Measured values from article PMC4215875.

Assays:
[1] = molecular target: alpha-HER2 CH1 tag (trastuzumab with aldehyde Tag C) (UniProt P01857); conditions: pH 7.3; not stated (pH 7.3)
[2] = molecular target: alpha-HER2 untagged (trastuzumab) (UniProt P01857); conditions: pH 7.3; not stated (pH 7.3)
[3] = molecular target: alpha-HER2 LC tag (trastuzumab with light-chain aldehyde tag); conditions: pH 7.3; not stated (pH 7.3)
[4] = molecular target: alpha-HER2 CH1 ADC (UniProt P01857); conditions: pH 7.3; not stated (pH 7.3)
[5] = molecular target: alpha-HER2 CT ADC (UniProt P01857); conditions: pH 7.3; not stated (pH 7.3)
[6] = molecular target: alpha-HER2-DM1 ADC (in-house T-DM1 analogue) none in sequence; heterogeneous lysine conjugation with SMCC-DM1 (DAR 3.4) (UniProt P01857); conditions: pH 7.3; not stated (pH 7.3)
[7] = molecular target: alpha-HER2 CT tag (trastuzumab with aldehyde Tag G) (UniProt P01857); conditions: pH 7.3; not stated (pH 7.3)
[8] = molecular target: alpha-HER2 LC ADC (UniProt P01857); conditions: pH 7.3; not stated (pH 7.3)
[9] = molecular target: FcRn (UniProt P55899); assay: SPR

In the case of Neonatal Fc receptor (FcRn), the % Bound after 5 s [1] is reported as 9.9 % bound, the % Bound after 5 s [2] is reported as 8.6 % bound and the % Bound after 5 s [3] is reported as 11 % bound. It also gave a % Bound after 5 s [4] of 9.5 % bound, a % Bound after 5 s [5] of 12 % bound and a % Bound after 5 s [6] of 14.9 % bound. It also gave a % Bound after 5 s [7] of 9.9 % bound and a % Bound after 5 s [8] of 10.9 % bound.

Substance “α-HER2 CH1 ADC (CH1-tagged trastuzumab conjugated to HIPS-Glu-PEG2-maytansine) (antibody)” has a Kd [9] of 4.8 nM.

“α-HER2 CH1 tag (trastuzumab with the aldehyde tag in the CH1 domain, Tag C) (antibody)” gave a % Bound after 5 s at pH 7.3 [9] of 9.9% and a Kd [9] of 5.2 nM.

“α-HER2 CT ADC (CT-tagged trastuzumab conjugated to HIPS-Glu-PEG2-maytansine) (antibody)” was tested, and the % Bound after 5 s at pH 7.3 [9] was 12% and the Kd [9] was 4.4 nM.

“α-HER2 CT tag (trastuzumab with the aldehyde tag at the heavy chain C-terminus, Tag G) (antibody)” showed a % Bound after 5 s at pH 7.3 [9] of 9.9% and a Kd [9] of 5.8 nM.

Substance “α-HER2 LC ADC (LC-tagged trastuzumab conjugated to HIPS-Glu-PEG2-maytansine) (antibody)” has a % Bound after 5 s at pH 7.3 [9] of 10.9% and a Kd [9] of 4.8 nM.

With “α-HER2 LC tag (trastuzumab with the aldehyde tag in the light chain) (antibody)” the % Bound after 5 s at pH 7.3 [9] was 11% and the Kd [9] was 4.7 nM.

“α-HER2 untagged (trastuzumab) (antibody)” was tested, and the Kd [9] was 5.2 nM.

In the case of “α-HER2-DM1 ADC (trastuzumab conjugated through conventional lysine chemistry to SMCC-DM1) (antibody)”, the % Bound after 5 s at pH 7.3 [9] is reported as 14.9% and the Kd [9] is reported as 5 nM.
